As usually defined, the Km is the concentration of substrate that gives half-maximal velocity. Broadly, the Vmax is the top rate of the reaction or transport when substrate is in excess. A word on the kcat: it is the maximal rate divided by the concentration of active sites. In general, kcat/Km refers to the turnover number divided by the Michaelis constant.

To fix the notation:
B1: AcHACL (Actinomycetospora chiangmaiensis DSM 45062) (protein)
chain: MADRQDAERSGAGPARQSVPVASLVAEFLQEHGVDRVFGLQGGHIQPIWDQLARRGVRIVDVRDEGSAVHMAHAHTELTGQTAVAMVTAGPGVTNTVTAVANASVSRIPLLVIGGCPPIPQSNMGPLQDIPHTAILEPITRLARTLRSADQVLREFDEAWARASGDRGEPGPVYLEIPTDVLRRDVPPALQMREHLRAKPKRRPQPHPDDVAAVADLIRAAEKPAIISGRGARTTDGTDLVRLLDASGAAYLDTQESRGLVPDSHPAAVGSARSAVMRDTDLLITVGRQLDYQLGMGSPAVFPHAKVVRIADTASELIDNRRGEVEILAEPGAALAAIADALKDHTPDTSWRDELKAKHRKRAEDYRQALHSTENGADGHIHPNRIFGALDALDGDVLDLGETIMIADGGDLLSFGRLGITKARRYLDAGAFGCLGVATPFAIGAALAYPDRPVVAVTGDGAFGITATEIDTAVRHDAKIVVIVSNNRAWNIERYDQAENYGLVVGTDLADSDYAGVARAFGAHGERVTDPAELEGAIRRALANAPALVDVVTTQDAASPDSGKGLGFVPDYQALTPWNDAEVARRQEGI
B2: AcHACL (Actinomycetospora chiangmaiensis DSM 45062; E493A) (protein)
chain: MADRQDAERSGAGPARQSVPVASLVAEFLQEHGVDRVFGLQGGHIQPIWDQLARRGVRIVDVRDEGSAVHMAHAHTELTGQTAVAMVTAGPGVTNTVTAVANASVSRIPLLVIGGCPPIPQSNMGPLQDIPHTAILEPITRLARTLRSADQVLREFDEAWARASGDRGEPGPVYLEIPTDVLRRDVPPALQMREHLRAKPKRRPQPHPDDVAAVADLIRAAEKPAIISGRGARTTDGTDLVRLLDASGAAYLDTQESRGLVPDSHPAAVGSARSAVMRDTDLLITVGRQLDYQLGMGSPAVFPHAKVVRIADTASELIDNRRGEVEILAEPGAALAAIADALKDHTPDTSWRDELKAKHRKRAEDYRQALHSTENGADGHIHPNRIFGALDALDGDVLDLGETIMIADGGDLLSFGRLGITKARRYLDAGAFGCLGVATPFAIGAALAYPDRPVVAVTGDGAFGITATEIDTAVRHDAKIVVIVSNNRAWNIARYDQAENYGLVVGTDLADSDYAGVARAFGAHGERVTDPAELEGAIRRALANAPALVDVVTTQDAASPDSGKGLGFVPDYQALTPWNDAEVARRQEGI
B3: AcHACL (Actinomycetospora chiangmaiensis DSM 45062; E493Q) (protein)
chain: MADRQDAERSGAGPARQSVPVASLVAEFLQEHGVDRVFGLQGGHIQPIWDQLARRGVRIVDVRDEGSAVHMAHAHTELTGQTAVAMVTAGPGVTNTVTAVANASVSRIPLLVIGGCPPIPQSNMGPLQDIPHTAILEPITRLARTLRSADQVLREFDEAWARASGDRGEPGPVYLEIPTDVLRRDVPPALQMREHLRAKPKRRPQPHPDDVAAVADLIRAAEKPAIISGRGARTTDGTDLVRLLDASGAAYLDTQESRGLVPDSHPAAVGSARSAVMRDTDLLITVGRQLDYQLGMGSPAVFPHAKVVRIADTASELIDNRRGEVEILAEPGAALAAIADALKDHTPDTSWRDELKAKHRKRAEDYRQALHSTENGADGHIHPNRIFGALDALDGDVLDLGETIMIADGGDLLSFGRLGITKARRYLDAGAFGCLGVATPFAIGAALAYPDRPVVAVTGDGAFGITATEIDTAVRHDAKIVVIVSNNRAWNIQRYDQAENYGLVVGTDLADSDYAGVARAFGAHGERVTDPAELEGAIRRALANAPALVDVVTTQDAASPDSGKGLGFVPDYQALTPWNDAEVARRQEGI

Substrate in this data set: CC(C)(O)C(=O)SCCNC(=O)CCNC(=O)[C@H](O)C(C)(C)COP(=O)(O)OP(=O)(O)OC[C@H]1O[C@@H](n2cnc3c(N)ncnc32)[C@H](O)[C@@H]1OP(=O)(O)O
The experiment in a line: purified protein. The settings on record: lyase direction, 37 °C, pH 7.2, 100 mM potassium phosphate, 10% glycerol, 0.2 mM ThDP, 0.2 mM ADP, 5 mM MgCl2, complex structure with dzThDP.
For the protein B1, the Km is 120 ± 12 µM, the Vmax was found to be 1.2 µmol/min/mg, the kcat was found to be 1.3 s⁻¹ and the kcat/Km turned out to be 11000 M⁻¹ s⁻¹.
With B2, the Km is 21 ± 4 µM, the Vmax was found to be 0.098 µmol/min/mg, the kcat came to 0.11 s⁻¹ and the catalytic efficiency (kcat/Km) came to 5100 M⁻¹ s⁻¹.
In the case of B3, the Km came out at 79 ± 7 µM, the Vmax came out at 0.025 µmol/min/mg, the kcat was determined as 0.03 s⁻¹ and the kcat/Km was determined as 340 M⁻¹ s⁻¹.

(Values after PMC8760513, “Mechanistic details of the actinobacterial lyase-catalyzed degradation reaction of 2-hydroxyisobutyryl-CoA” (The Journal of Biological Chemistry, 2021).)
